For test [1], the target named is T1, BCMAECD-Fc (dimerized, Fc-tagged human BCMA extracellular domain) (human, UniProt Q02223-1 1-54, not fully specified).
T1 chain: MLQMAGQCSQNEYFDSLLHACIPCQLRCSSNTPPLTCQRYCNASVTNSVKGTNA
In words: SPR.

Test [2] deals with T2, BCMAECD-His (monomeric, His-tagged human BCMA extracellular domain) (human, UniProt Q02223-1 1-54).
T2 chain: T1 chain
As to the kind of experiment: SPR.

B1: Nb1 (anti-BCMA nanobody 1 of the cilta-cel CAR) (VHH)
VHH: QVKLEESGGGLVQAGRSLRLSCAASEHTFSSHVMGWFRQAPGKERESVAVIGWRDISTSYADSVKGRFTISRDNAKKTLYLQMNSLKPEDTAVYYCAARRIDAADFDSWGQGTQVTVSS
With B1, the off-rate (koff) in test [1] is 2.94e-05 s⁻¹; in test [2] it was 6.52e-05 s⁻¹.

B2: Nb2 (anti-BCMA nanobody 2 of the cilta-cel CAR) (VHH)
VHH: EVQLVESGGGLVQAGGSLRLSCAASGRTFTMGWFRQAPGKEREFVAAISLSPTLAYYAESVKGRFTISRDNAKNTVVLQMNSLKPEDTALYYCAADRKSVMSIRPDYWGQGTQVTVSS
On to B2, for which the dissociation rate constant (koff) in test [1] was found to be 0.0108 s⁻¹; in test [2], 0.0264 s⁻¹.
